Holding throughout (assay): fluorescence polarization
For orientation: In fluorescence polarisation assays a small probe gives low polarisation when free and higher when bound to something large.

Data set [1] deals with T1, RFS1 (cShu subunit);RIP1 (cShu subunit);SWS1 (cShu subunit) (Caenorhabditis elegans;Caenorhabditis …, UniProt P34348;Q21621;Q8MYM5 1-245;1-209;1-191, ||).
T1 sequence 1: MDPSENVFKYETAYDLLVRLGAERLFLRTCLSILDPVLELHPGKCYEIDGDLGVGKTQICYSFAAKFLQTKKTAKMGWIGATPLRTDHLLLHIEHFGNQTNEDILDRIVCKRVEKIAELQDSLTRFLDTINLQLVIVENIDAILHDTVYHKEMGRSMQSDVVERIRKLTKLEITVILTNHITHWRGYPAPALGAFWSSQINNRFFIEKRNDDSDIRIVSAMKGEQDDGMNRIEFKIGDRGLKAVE
T1 sequence 2: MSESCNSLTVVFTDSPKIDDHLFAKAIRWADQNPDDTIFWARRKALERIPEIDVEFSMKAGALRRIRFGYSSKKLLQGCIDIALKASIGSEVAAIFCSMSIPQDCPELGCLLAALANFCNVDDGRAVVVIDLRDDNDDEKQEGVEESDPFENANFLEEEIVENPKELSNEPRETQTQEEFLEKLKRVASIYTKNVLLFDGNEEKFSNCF
T1 sequence 3: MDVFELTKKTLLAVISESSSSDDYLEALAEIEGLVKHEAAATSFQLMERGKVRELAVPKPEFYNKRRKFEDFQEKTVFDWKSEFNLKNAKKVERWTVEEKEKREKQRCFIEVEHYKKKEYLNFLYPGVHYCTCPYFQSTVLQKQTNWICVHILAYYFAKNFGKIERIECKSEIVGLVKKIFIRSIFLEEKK

The target of data set [2] is T1, RFS1 (cShu subunit);RIP1 (cShu …). The source holds these as a separate data set.
Data set [3] concerns the target T2, RFS1 E138A (Walker B);RIP1 (cShu subunit);SWS1 (cShu subunit) (Caenorhabditis elegans;Caenorhabditis …, UniProt P34348;Q21621;Q8MYM5 1-245;1-209;1-191, E138A||).
T2 sequence 1: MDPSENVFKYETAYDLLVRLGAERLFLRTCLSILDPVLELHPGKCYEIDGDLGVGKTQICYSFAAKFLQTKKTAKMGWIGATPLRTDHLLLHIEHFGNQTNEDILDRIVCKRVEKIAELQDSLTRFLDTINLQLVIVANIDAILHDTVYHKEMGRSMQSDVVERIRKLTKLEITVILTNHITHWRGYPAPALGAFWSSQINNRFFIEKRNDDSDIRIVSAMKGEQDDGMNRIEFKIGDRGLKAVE
T2 sequence 2: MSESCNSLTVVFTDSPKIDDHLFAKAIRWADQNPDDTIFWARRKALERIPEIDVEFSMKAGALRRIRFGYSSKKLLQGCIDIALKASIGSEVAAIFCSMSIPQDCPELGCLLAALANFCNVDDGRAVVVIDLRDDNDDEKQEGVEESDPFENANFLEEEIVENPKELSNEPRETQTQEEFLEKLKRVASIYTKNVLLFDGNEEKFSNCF
T2 sequence 3: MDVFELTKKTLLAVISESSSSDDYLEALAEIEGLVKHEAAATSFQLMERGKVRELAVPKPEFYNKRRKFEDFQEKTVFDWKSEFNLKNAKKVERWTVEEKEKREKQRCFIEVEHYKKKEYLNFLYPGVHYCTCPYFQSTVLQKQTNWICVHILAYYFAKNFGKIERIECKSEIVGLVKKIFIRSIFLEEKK

Data set [4] has as its target T3, RFS1 K56A (Walker A);RIP1 (cShu subunit);SWS1 (cShu subunit) (Caenorhabditis elegans;Caenorhabditis …, UniProt P34348;Q21621;Q8MYM5 1-245;1-209;1-191, K56A||).
T3 sequence 1: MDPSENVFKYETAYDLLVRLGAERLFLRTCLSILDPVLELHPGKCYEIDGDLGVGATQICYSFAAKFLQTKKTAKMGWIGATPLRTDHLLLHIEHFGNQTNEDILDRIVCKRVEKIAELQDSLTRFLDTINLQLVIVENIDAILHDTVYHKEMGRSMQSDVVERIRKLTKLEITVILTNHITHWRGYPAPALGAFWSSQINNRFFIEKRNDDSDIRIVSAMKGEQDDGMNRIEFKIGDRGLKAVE
T3 sequence 2: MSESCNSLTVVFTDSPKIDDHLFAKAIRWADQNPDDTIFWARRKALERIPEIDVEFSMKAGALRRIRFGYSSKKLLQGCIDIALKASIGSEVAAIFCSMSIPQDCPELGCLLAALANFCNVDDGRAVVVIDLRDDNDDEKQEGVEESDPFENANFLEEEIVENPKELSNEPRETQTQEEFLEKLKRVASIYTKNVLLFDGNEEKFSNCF
T3 sequence 3: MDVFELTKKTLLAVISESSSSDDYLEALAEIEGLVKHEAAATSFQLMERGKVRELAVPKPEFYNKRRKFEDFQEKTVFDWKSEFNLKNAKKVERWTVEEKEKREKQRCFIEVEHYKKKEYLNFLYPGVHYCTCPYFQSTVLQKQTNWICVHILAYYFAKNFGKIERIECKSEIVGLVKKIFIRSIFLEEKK

Data set [5] deals with T1, RFS1 (cShu subunit);RIP1 (cShu …). The source holds these as a separate data set.
In data set [6] the target is T2, RFS1 E138A (Walker B);RIP1 (cShu …). This is another data set of the same source.
Data set [7] has as its target T3, RFS1 K56A (Walker A);RIP1 (cShu …). The source holds these as a separate data set.
The target of data set [8] is T1, RFS1 (cShu subunit);RIP1 (cShu …). This is another data set of the same source.
Data set [9] addresses T2, RFS1 E138A (Walker B);RIP1 (cShu …). The source holds these as a separate data set.
Data set [10] has as its target T3, RFS1 K56A (Walker A);RIP1 (cShu …). This is another data set of the same source.

Like-named read-outs stand apart in the source and are kept apart here.

B1: ds21 (dsDNA)
DNA 1: ACTTACAGCACAGCGGTTTTT
DNA 2: AAAAACCGCTGTGCTGTAAGT
Consider B1, for which the binding result in data set [1] was “no binding”.

B2: 5'-overhang (10 nt) (mixed)
DNA 1: ACTGCCCTTACAGCACAGCGG
DNA 2: TTTTTTTTTTCCGCTGTGCTGTAAGGGCAGT
As to B2, in data set [1], the binding result is recorded as “no binding”.

B3: 3'-overhang (5 nt) (mixed)
DNA 1: ACTGCCCTTACAGCACAGCGGTTTTT
DNA 2: CCGCTGTGCTGTAAGGGCAGT
As to B3, the binding result in data set [1] was “no binding”.

B4: Fork (5 nt) (mixed)
DNA 1: ACTGCCCTTACAGCACAGCGGTTTTT
DNA 2: TTTTTCCGCTGTGCTGTAAGGGCAGT
For the molecule B4, in data set [1], the binding result is given as “no binding”.

B5: 5'-overhang (5 nt) (mixed)
DNA 1: ACTGCCCTTACAGCACAGCGG
DNA 2: TTTTTCCGCTGTGCTGTAAGGGCAGT
With B5, the binding result in data set [1] was “no binding”.
One may read the Kd as the equilibrium constant for the complex coming apart. Low values mean higher affinity, high ones lower affinity. As for ACTGCCCTTACAGCACAGCGGTTTTTTTTTT (ssDNA) [ss31], in [1], binding was characterised by a dissociation constant (Kd) of 3200 ± 300 nM.

B6: 3'-overhang (10 nt) (mixed)
DNA 1: ACTGCCCTTACAGCACAGCGGTTTTTTTTTT
DNA 2: CCGCTGTGCTGTAAGGGCAGT
With B6, the binding result in [1] is on record as “no binding”.

B7: Fork (10 nt) (mixed)
DNA 1: ACTGCCCTTACAGCACAGCGGTTTTTTTTTT
DNA 2: TTTTTTTTTTCCGCTGTGCTGTAAGGGCAGT
Regarding B7, the binding result in data set [1] is recorded as “no binding”.

B8: ds26 (dsDNA)
DNA 1: ACTGCCCTTACAGCACAGCGGTTTTT
DNA 2: AAAAACCGCTGTGCTGTAAGGGCAGT
Take B8: the binding result in data set [1] was “no binding”.
As for ACTTACAGCACAGCGGTTTTT (ssDNA) [ss21], in data set [1], the binding result was “no binding”.

B9: 3'-overhang (20 nt) (mixed)
DNA 1: CTTGACAAGCTTGCGCACT
DNA 2: AGTGCGCAAGCTTGTCAAGGCACTTTTTTTTTTTTTTTT
On to B9, for which the binding result in data set [2] is “no binding”.
In data set [1], ACTGCCCTTACAGCACAGCGGTTTTT (ssDNA) [ss26] came in with a Kd of 4200 ± 400 nM.

B10: 5'-overhang (20 nt) (mixed)
DNA 1: TTTTTTTTTTTTTTTTTTTTCTTGACAAGCTTGCGCACT
DNA 2: AGTGCGCAAGCTTGTCAAG
For B10, the Kd in data set [2] came to 4200 ± 500 nM; in [3] it was 3900 ± 100 nM; in data set [4] it was 4500 ± 300 nM; in data set [5], 3800 ± 300 nM; in data set [6] it was 1200 ± 100 nM; in data set [7], 4700 ± 200 nM. The Kd turned out to be 695 ± 3 nM in data set [8], 760 ± 40 nM in data set [9] and 3900 ± 400 nM in [10].
As to TTTTTTTTTTTTTTTTTTTTCTTGACAAGCTTGCGCACT (ssDNA) [ss39], the Kd in data set [2] was determined as 2900 ± 100 nM; in [3] it was 2700 ± 200 nM; in [4], 3300 ± 200 nM; in [5] it was 2900 ± 300 nM; in data set [6], 2200 ± 100 nM; in data set [7] it was 3300 ± 100 nM. Further, the figures for the Kd in [8], in data set [9] and in data set [10] were 1000 ± 100 nM, 1000 ± 20 nM and 3000 ± 100 nM, respectively.

B11: Fork (20 nt) (mixed)
DNA 1: TTTTTTTTTTTTTTTTTTTTCTTGACAAGCTTGCGCACT
DNA 2: AGTGCGCAAGCTTGTCAAGGCACTTTTTTTTTTTTTTTT
As to B11, the Kd came to 2800 ± 300 nM in [2]; 1900 ± 200 nM in [3]; 2500 ± 300 nM in [4]; 500 ± 20 nM in [5]; 380 ± 30 nM in data set [6]; 2500 ± 100 nM in data set [7]. Also, the values for the Kd in [8], in data set [9] and in data set [10] were 210 ± 20 nM, 140 ± 10 nM and 2680 ± 80 nM, respectively.

B12: ds39 (dsDNA)
DNA 1: TTTTTTTTTTTTTTTTTTTTCTTGACAAGCTTGCGCACT
DNA 2: AGTGCGCAAGCTTGTCAAGAAAAAAAAAAAAAAAAAAAA
Regarding B12, the binding result in [2], in data set [3] and in data set [4] was “no binding” each time.

These data come from article doi:10.1101/2025.11.17.685403.
